# Data published in patent US20250188188A1 (DIANTHUS THERAPEUTICS OPCO, published 2025).
# T1: active human C1s purified from human serum (CompTech, Tyler, TX, catalog number A104) (human, UniProt P09871 16-437; P09871 438-688)
# T1 sequence 1: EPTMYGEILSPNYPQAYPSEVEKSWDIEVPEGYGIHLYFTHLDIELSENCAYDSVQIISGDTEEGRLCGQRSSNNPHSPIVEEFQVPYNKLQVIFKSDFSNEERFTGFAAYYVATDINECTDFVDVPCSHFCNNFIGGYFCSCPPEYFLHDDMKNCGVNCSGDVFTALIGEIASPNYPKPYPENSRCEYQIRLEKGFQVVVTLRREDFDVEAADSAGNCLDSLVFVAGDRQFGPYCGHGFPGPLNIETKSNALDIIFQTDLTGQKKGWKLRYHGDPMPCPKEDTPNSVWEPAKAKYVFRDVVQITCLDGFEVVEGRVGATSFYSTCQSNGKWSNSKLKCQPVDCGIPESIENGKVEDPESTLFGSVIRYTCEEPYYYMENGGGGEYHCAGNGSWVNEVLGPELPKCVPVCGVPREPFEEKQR
# T1 sequence 2: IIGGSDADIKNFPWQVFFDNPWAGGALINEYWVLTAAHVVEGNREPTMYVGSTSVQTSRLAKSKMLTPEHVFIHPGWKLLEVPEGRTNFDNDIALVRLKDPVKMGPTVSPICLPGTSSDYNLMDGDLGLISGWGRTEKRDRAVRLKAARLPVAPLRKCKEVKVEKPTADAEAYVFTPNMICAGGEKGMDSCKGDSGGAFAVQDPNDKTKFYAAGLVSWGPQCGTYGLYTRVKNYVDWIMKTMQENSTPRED
# Assays:
# [1] = biological target: T1, active human C1s purified from human …; test: cell-based or functional assay
# [2] = biological target: T1, active human C1s purified from human …; test: cell-based or functional assay; remark: listed apart in the source
# [3] = biological target: T1, active human C1s purified from human …; test: cell-based or functional assay; remark: listed apart in the source
# [4] = biological target: T1, active human C1s purified from human …; test: cell-based or functional assay; remark: listed apart in the source
# [5] = biological target: T1, active human C1s purified from human …; test: SPR (Biacore 4000), 37 C pH 7.4, antibody captured via goat anti-human antibody, C1s in solution, n=4
# Experimental: (§1) Binding of MAB39 and MAB9 to Human Active C1s at 37° C./pH 7.4 Measured by Surface Plasmon Resonance. Human active C1s purified from serum was procured from Complement Technologies, Tyler, TX (catalog number A104). Studies to evaluate MAB39 and MAB9 binding to human active C1s at 37° C. were performed on a Biacore 4000 and Biacore T100 (Cytiva, Marlborough, MA), respectively. Goat anti-human antibody (ThermoFisher, Waltham, MA, USA, catalog number H10500) was amine-coupled to a C1 sensor chip (Cytiva, Marlborough, MA, USA, catalog number BR100535). MAB39 was diluted to 6.67 nM and MAB9 was diluted to 10 nM in 50 mM HEPES pH 7.4, 150 mM NaCl, 1.3 mM Ca, 0.02% Tween-20, 1 mg/mL BSA (HBS). MAB39 was captured for 60 seconds to produce surface densities of 200 RU and MAB9 was captured for 30 seconds to produce surface densities of 10 to 20 RU. Human active C1s was tested for binding using a 3-fold titration series in HBS with a maximum concentration of 12.3 nM for MAB39 and 16 nM for MAB9. Data were processed by subtracting responses from a reference surface as well as a buffer injection. The processed data were fitted with a 1:1 interaction model including baseline offset and bulk refractive index shifts in the association phase. Surfaces were regenerated with a 12 second injection of 1/100 dilution of H3PO4 for MAB39 and 12 second injection of 1/50 dilution of H3PO4 for MAB9. Replicate experiments were performed (n=2 for MAB9 and n=4 for MAB39).
# Comparison of Binding Affinities of MAB39 and MAB9 to Human Active C1s by Surface Plasmon Resonance. The human active C1s association constant (ka), disassociation constant (kd) and affinity (KD) for MAB39 and MAB9 were determined in separate experiments (Table 17). […] Statistical analysis was performed using paired t-test, with p value of 0.6168.
# [6] = biological target: T1, active human C1s purified from human …; test: SPR (Biacore T100), 37 C pH 7.4, antibody captured via goat anti-human antibody, C1s in solution, n=2; Table 17 experiment, apart from Table 12
# Experimental: as §1, with “The processed data were fitted with a 1:1 interaction model including baseline offset and bulk refractive index shifts in the association phase. Surfaces were regenerated with a 12 second injection of 1/100 dilution of H3PO4 for MAB39 and 12 second injection of 1/50 dilution of H3PO4 for MAB9. Replicate experiments were performed (n=2 for MAB9 and n=4 for MAB39).” left out
# (§2) Comparison of Binding Affinities of MAB39 and MAB9 to Human Active C1s by Surface Plasmon Resonance. The human active C1s association constant (ka), disassociation constant (kd) and affinity (KD) for MAB39 and MAB9 were determined in separate experiments (Table 17). […]
# [7] = biological target: T1, active human C1s purified from human …; test: SPR, direct comparison
# [8] = biological target: T1, active human C1s purified from human …; test: SPR (Biacore T100), 37 C pH 7.4, antibody captured via goat anti-human antibody, C1s in solution, n=2
# Experimental: as §1, with “The processed data were fitted with a 1:1 interaction model including baseline offset and bulk refractive index shifts in the association phase. Surfaces were regenerated with a 12 second injection of 1/100 dilution of H3PO4 for MAB39 and 12 second injection of 1/50 dilution of H3PO4 for MAB9. Replicate experiments were performed (n=2 for MAB9 and n=4 for MAB39).” left out
# as §2
# [9] = biological target: T1, active human C1s purified from human …; test: cell-based or functional assay; remark: listed apart in the source
"IC50, inhibition of Wieslab complement classical pathway (C5b-9 ELISA), 1% human serum [3]",Kd [5],koff [5],kon [5],Kd [6],fold higher affinity than MAB2 (US20220380483A1) [7],koff [8],kon [8],IC50 in the RBC lysis assay (FIG. 4C) [9],"fold improvement in potency (IC50, RBC lysis assay) against MAB2 (US20220380483A1) [9]",Binder,"IC50, inhibition of C3b deposition on sensitized hRBCs in 7.5% human serum (flow cytometry), Donor A [1]","IC50, inhibition of C3b deposition on sensitized hRBCs in 7.5% human serum (flow cytometry), Donor B (1) [1]","IC50, inhibition of C3b deposition on sensitized hRBCs in 7.5% human serum (flow cytometry), Donor B (2) [1]","IC50, inhibition of sensitized hRBC lysis in 25% human serum [2]","IC50, inhibition of sensitized hRBC lysis in 25% human serum, Donor 1 [4]","IC50, inhibition of sensitized hRBC lysis in 25% human serum, Donor 2 [4]","IC50, inhibition of sensitized hRBC lysis in 25% human serum, Donor 3 [4]"
2.6 nM,–,–,–,–,–,–,–,–,–,"IgG4-MAB4 (MAB4 in human IgG4 with S228P, L235E and YTE) (antibody, V domains shown) VH: QVQLVESGGGLVKPGGSLRLSCAASGFTFSDYYMSWIRQAPGKGLEWVSYISRSGSTKYYADSVKGRFTISRDNAKNSLYLQMNSLRAEDTAVYYCARDESQYALDYWGQGTLVTVSS VL: DIQMTQSPSSLSASVGDRVTITCQASQDISNYLNWYQQKPGKAPKLLIYDASNLETGVPSRFSGSGSGTDFTFTISSLQPEDIATYYCHQYEDYPLTFGGGTKVEIKR",69.2 nM,193 nM,262 nM,17.5 nM,14.9 nM,17.1 nM,6.6 nM
–,0.0105 nM,0.000125 s⁻¹,1.19e+07 M⁻¹ s⁻¹,–,–,–,–,–,–,"IgG4-MAB39 (MAB39 in human IgG4 with S228P, L235E and YTE) (antibody, Differs from MAB9 only in the N-terminal VH residue (E instead of Q); also called IgG-MAB39) heavy: EVQLVESGGGLVKPGGSLRLSCAASGFTFSDYYMSWIRQAPGKGLEWVSYISRSGSTKYYADSVKGRFTISRDNAKNSLYLQMNSLRAEDTAVYYCARDENYALDWWGQGTLVTVSSASTKGPSVFPLAPCSRSTSESTAALGCLVKDYFPEPVTVSWNSGALTSGVHTFPAVLQSSGLYSLSSVVTVPSSSLGTKTYTCNVDHKPSNTKVDKRVESKYGPPCPPCPAPEFEGGPSVFLFPPKPKDTLYITREPEVTCVVVDVSQEDPEVQFNWYVDGVEVHNAKTKPREEQFNSTYRVVSVLTVLHQDWLNGKEYKCKVSNKGLPSSIEKTISKAKGQPREPQVYTLPPSQEEMTKNQVSLTCLVKGFYPSDIAVEWESNGQPENNYKTTPPVLDSDGSFFLYSRLTVDKSRWQEGNVFSCSVMHEALHNHYTQKSLSLSLG light: not shown",–,–,–,–,–,–,–
0.78 nM,–,–,–,0.0071 nM,~10 fold,0.00012 s⁻¹,1.69e+07 M⁻¹ s⁻¹,17.6 nM,> 3 fold,"IgG4-MAB9 (MAB9 in human IgG4 with S228P, L235E and YTE) (antibody, also called MAB9 with constant domain PE and YTE mutations) heavy: QVQLVESGGGLVKPGGSLRLSCAASGFTFSDYYMSWIRQAPGKGLEWVSYISRSGSTKYYADSVKGRFTISRDNAKNSLYLQMNSLRAEDTAVYYCARDENYALDWWGQGTLVTVSSASTKGPSVFPLAPCSRSTSESTAALGCLVKDYFPEPVTVSWNSGALTSGVHTFPAVLQSSGLYSLSSVVTVPSSSLGTKTYTCNVDHKPSNTKVDKRVESKYGPPCPPCPAPEFEGGPSVFLFPPKPKDTLYITREPEVTCVVVDVSQEDPEVQFNWYVDGVEVHNAKTKPREEQFNSTYRVVSVLTVLHQDWLNGKEYKCKVSNKGLPSSIEKTISKAKGQPREPQVYTLPPSQEEMTKNQVSLTCLVKGFYPSDIAVEWESNGQPENNYKTTPPVLDSDGSFFLYSRLTVDKSRWQEGNVFSCSVMHEALHNHYTQKSLSLSLG light: not shown",64.1 nM,124 nM,202 nM,17.6 nM,12.9 nM,22.1 nM,5.8 nM
